Data set [1] concerns the target T1, 4-GalNAc-HP (VPST(GalNAc)PPTPSPSTPPTPSPS), human IgA1 hinge peptide with GalNAc on the 4th residue.
T1 chain: VPSTPPTPSPSTPPTPSPS

For data set [2], the target named is T2, 11-GalNAc-HP-Cy5 (VPSTPPTPSPS(GalNAc)TPPTPSPS), human IgA1 hinge peptide with GalNAc on the 11th residue, Cy5-labelled.
T2 chain: VPSTPPTPSPSTPPTPSPS

The target of data set [3] is various GalNAc α1-peptides.

B1: FLAG tagged C1Gal-T3 fusion protein (C1Gal-T3 recombinant enzyme from pFLAG-C1Gal-T3, secreted by COS-1 cells) (protein)
chain: HIRHRGQTQDHEHHHLRPPNRNDFLNTSKVILLELSKSIRVFCIIFGESEDESYWAVLKETWTKHCDKAELYDTKNDNLFNIESNDRWVQMRTAYKYVFEKYGDNYNWFFLALPTTFAVIENLKYLLFTRDASQPFYLGHTVIFGDLEYVTVEGGIVLSRELMKRLNRLLDNSETCADQSVIWKLSEDKQLAICLKYAGVHAENAEDYEGRDVFNTKPIAQLIEEALSNNPQQVVEGCCSDMAITFNGLTPQKMEVMMYGLYRLRAFGHYFNDTLVFLPPVGSEND
For the protein B1, the galactose transferring activity result in data set [1] was “galactose transferring activity could be confirmed for 4-GalNAc-HP”.

B2: C1Gal-T2 (entire ORF expressed in LSC cells, LSC-C1Gal-T2 enzyme source) (protein)
chain: MLSESSSFLKGVMLGSIFCALITMLGHIRIGHGNRMHHHEHHHLQAPNKEDILKISEDERMELSKSFRVYCIILVKPKDVSLWAAVKETWTKHCDKAEFFSSENVKVFESINMDTNDMWLMMRKAYKYAFDKYRDQYNWFFLARPTTFAIIENLKYFLLKKDPSQPFYLGHTIKSGDLEYVGMEGGIVLSVESMKRLNSLLNIPEKCPEQGGMIWKISEDKQLAVCLKYAGVFAENAEDADGKDVFNTKSVGLSIKEAMTYHPNQVVEGCCSDMAVTFNGLTPNQMHVMMYGVYRLRAFGHIFNDALVFLPPNGSDND
In the case of B2, in data set [2], the “HPLC of the galactose transfer reaction product” value is listed as “the reaction product appeared as a new peak at 28.8 minutes” and the “β1,3-galactosidase treatment of the reaction product, HPLC” value is recorded as “C1Gal-T2 was verified in vitro to be a core 1 synthetase, by which galactose is transferred to the nonreducing terminal of GalNAc α1-peptide through the β1,3 bond”. The “galactosyltransferase activity on acceptor substrates” value in data set [3] is “the above experiment was repeated using various GalNAc α1-peptides as acceptor substrates. This resulted in similar reactions to that with pNp-α-GalNAc”.
